Blank lines part the entries; values can stand above or below the binder they belong to.
Biological target: T1, human ACVR2B.Fc fusion protein (human, UniProt Q13705)
T1 sequence: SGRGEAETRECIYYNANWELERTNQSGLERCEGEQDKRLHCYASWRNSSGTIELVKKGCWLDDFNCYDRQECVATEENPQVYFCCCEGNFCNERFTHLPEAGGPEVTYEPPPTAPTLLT
Assay: SPR

- binding result: binds
B1: Activin A (wild type, mature dimer) (ligand)
chain: GLECDGKVNICCKKQFFVSFKDIGWNDWIIAPSGYHANYCEGECPSHIAGTSGSSLSFHSTVINHYRMRGHSPFANLKSCCVPTKLRPMSMLYYDDGQNIIKKDIQNMIVEECGCS

- binding result: binds
B2: Activin A.ΔD406 (ligand)
chain: GLECDGKVNICCKKQFFVSFKDIGWNDWIIAPSGYHANYCEGECPSHIAGTSGSSLSFHSTVINHYRMRGHSPFANLKSCCVPTKLRPMSMLYYDGQNIIKKDIQNMIVEECGCS

Reference: doi:10.1101/733147 (bioRxiv, 2020)
